We go through 51 sequences from the Immune Epitope Database (IEDB).

The first experiment deals with HLA-A*33:01. Kind of experiment: IEDB peptide-MHC binding, purified MHC/competitive/radioactivity; filed as Kd, often an IC50 or EC50 that approximates it; ≥ and ≤ were set here for values at or beyond the usual limits of such assays. Particulars: source organism: Mammarenavirus guanaritoense.
For orientation: Kd means a measure of binding affinity in units of concentration. Turning to KTAVNMLTH, the Kd was no less than 77700 nM.

The experiment is the same for the next values; noted with them: source organism: Mammarenavirus juninense.
Regarding MVGLFSNNPH, the Kd is 398 nM.

Still in this experiment, the particulars now being: source organism: SARS coronavirus Tor2.
Regarding SAQCFKMFYK, the Kd stood at 398 nM.

On to NQVIVNNLDK, for which the dissociation constant Kd is no less than 70000 nM.

Take STCFKLMLK: the equilibrium dissociation constant (Kd) worked out at 1450 nM.

As to KSKSFNHVLK, the Kd is no less than 70000 nM.

In the case of AAAYFVGYLK, the Kd came out at 5610 nM.

The same experiment, now with this note: source organism: Vaccinia virus WR.
For the sequence TILDDNLYK, the Kd was no less than 77700 nM.

With PLFDFVNEKY, the Kd was no less than 70000 nM.

On to NMRDLIVTFR, for which the Kd was 0.566 nM.

Take QLPKRGVRVR: the Kd was no less than 70000 nM.

For SFSNTIQSY, the dissociation constant Kd was no less than 77700 nM.

For the sequence DAKNDDWKK, the Kd came out at 2830 nM.

KSDNIINIGY: the Kd was no less than 48600 nM.

For the sequence KFGKNHIHR, the Kd stood at 5310 nM.

As to FSTSAADIKR, the Kd was no less than 22500 nM.

For DFDNLIGVR, the Kd worked out at 87.1 nM.

HIVCSKTVK: the Kd was no less than 32800 nM.

SIKDVIHDY: the Kd stood at 19400 nM.

For the sequence YLSTFNMWR, the Kd was 94.5 nM.

As for TIPIGMQFDK, the Kd is no less than 70000 nM.

With STYSDICSK, the Kd is 988 nM.

On to YIFPGDKTSY, for which the dissociation constant (Kd) is no less than 70000 nM.

SQIFNIISY: the Kd was found to be 996 nM.

With DTSNNIAEY, the Kd stood at 7610 nM.

For TSMMVILPDK, the Kd was no less than 23000 nM.

Consider SSVQLSNNKY, for which the Kd came to 10100 nM.

With NILGGVLHTK, the Kd was found to be 1370 nM.

For the sequence EVGSIRCVKY, the Kd is no less than 47800 nM.

For a further experiment, the target named is HLA-A*02:06. Described as above. The settings on record: source organism: Dengue virus 3 Martinique/1243/1999.
For VQYENLKYTV, the Kd was determined as 61 nM.

The same experiment, now with this note: source organism: Dengue virus 4 Philippines/H241/1956.
In the case of NQAAVLMGL, the Kd was found to be 6.98 nM.

Still in this experiment, the particulars now being: source organism: SARS coronavirus Tor2.
In the case of TLLCVLAALV, the Kd was found to be 64.6 nM.

Regarding FLYIIKLVFL, the Kd worked out at 865 nM.

Still in this experiment, the particulars now being: source organism: Vaccinia virus WR.
In the case of NLETYTRPEI, the Kd came out at 636 nM.

As to WLRAKRKPAM, the Kd came out at 11900 nM.

Take SQAKKPEVRI: the Kd was 5860 nM.

For the sequence CVSNLDISSV, the Kd was 47.9 nM.

Consider TINVNSLAL, for which the Kd worked out at 2180 nM.

As to YTFAISYCRA, the equilibrium dissociation constant (Kd) stood at 37.4 nM.

In the case of ATCALVSDCA, the Kd turned out to be 9140 nM.

For the sequence KIDILQMREI, the Kd was 875 nM.

For RLRYNLCKYL, the Kd came to 15700 nM.

For the sequence NLLEQLIENI, the Kd came out at 396 nM.

With LMELPVKTDI, the Kd is 12900 nM.

Consider NVSRVVECLT, for which the Kd was no less than 10000 nM.

Consider YIALCKVTV, for which the Kd came to 18.8 nM.

As to FTILEYLYIM, the Kd worked out at 40.5 nM.

On to YVGDTSMMVI, for which the dissociation constant (Kd) was found to be 324 nM.

As for IMEIVSHLRA, the Kd came out at 4410 nM.

With KVTVPTNDHI, the Kd amounted to 3600 nM.

Take NVQSLIKFI: the Kd was 10500 nM.

In a further experiment the target is HLA-A*11:01. The experiment is described as above. Particulars: source organism: Mammarenavirus guanaritoense.
On to KTAVNMLTH, for which the Kd worked out at 216 nM.

The experiment is the same for the next values; noted with them: source organism: Mammarenavirus juninense.
Take MVGLFSNNPH: the Kd worked out at 5960 nM.

Still in this experiment, the particulars now being: source organism: SARS coronavirus Tor2.
SAQCFKMFYK: the Kd came out at 4.59 nM.

NQVIVNNLDK: the Kd stood at 13300 nM.

Take STCFKLMLK: the Kd came to 0.553 nM.

Take KSKSFNHVLK: the Kd worked out at 21.6 nM.

Consider AAAYFVGYLK, for which the Kd stood at 0.439 nM.

Staying with this experiment, now noted: source organism: Vaccinia virus WR.
On to TILDDNLYK, for which the Kd stood at 14.8 nM.

For PLFDFVNEKY, the dissociation constant Kd was no less than 69800 nM.

Turning to NMRDLIVTFR, the Kd was determined as 14800 nM.

As for QLPKRGVRVR, the Kd is no less than 47000 nM.

On to SFSNTIQSY, for which the Kd was found to be 4300 nM.

Consider DAKNDDWKK, for which the dissociation constant (Kd) is 3100 nM.

On to KSDNIINIGY, for which the Kd came out at 142 nM.

In the case of KFGKNHIHR, the Kd is no less than 35800 nM.

FSTSAADIKR: the Kd came to 247 nM.

As to DFDNLIGVR, the Kd was no less than 77900 nM.

For the sequence HIVCSKTVK, the Kd is 1590 nM.

In the case of SIKDVIHDY, the Kd is 2810 nM.

With YLSTFNMWR, the Kd came out at 666 nM.

As for TIPIGMQFDK, the Kd came out at 4.02 nM.

For STYSDICSK, the Kd was determined as 0.706 nM.

YIFPGDKTSY: the Kd came to 1260 nM.

Take SQIFNIISY: the dissociation constant (Kd) stood at 53.5 nM.

Consider DTSNNIAEY, for which the dissociation constant (Kd) is no less than 5000 nM.

As for TSMMVILPDK, the Kd was 1.8 nM.

SSVQLSNNKY: the Kd amounted to 141 nM.

Regarding NILGGVLHTK, the Kd is 36.8 nM.

As to EVGSIRCVKY, the equilibrium dissociation constant (Kd) was no less than 69800 nM.

The target of another experiment is HLA-A*31:01. The description is as above. The settings on record: source organism: Mammarenavirus guanaritoense.
In the case of KTAVNMLTH, the Kd turned out to be 45.3 nM.

The experiment is the same for the next values; noted with them: source organism: Mammarenavirus juninense.
For MVGLFSNNPH, the dissociation constant (Kd) was determined as 106 nM.

The same experiment, now with this note: source organism: SARS coronavirus Tor2.
Regarding SAQCFKMFYK, the Kd amounted to 26.8 nM.

For NQVIVNNLDK, the Kd was no less than 40700 nM.

As to STCFKLMLK, the equilibrium dissociation constant (Kd) worked out at 26.5 nM.

Regarding KSKSFNHVLK, the Kd amounted to 6.54 nM.

With AAAYFVGYLK, the Kd was 282 nM.

Staying with this experiment, now noted: source organism: Vaccinia virus WR.
In the case of TILDDNLYK, the equilibrium dissociation constant (Kd) was no less than 50300 nM.

With PLFDFVNEKY, the Kd was no less than 26800 nM.

Consider NMRDLIVTFR, for which the Kd is 1.14 nM.

For QLPKRGVRVR, the Kd was 5380 nM.

SFSNTIQSY: the Kd is no less than 77900 nM.

With DAKNDDWKK, the Kd is no less than 36700 nM.

Take KSDNIINIGY: the Kd worked out at 3870 nM.

Turning to KFGKNHIHR, the dissociation constant (Kd) is 4.47 nM.

For the sequence FSTSAADIKR, the Kd is 11100 nM.

Consider DFDNLIGVR, for which the Kd worked out at 8030 nM.

As to HIVCSKTVK, the Kd was determined as 623 nM.

For SIKDVIHDY, the Kd was 2260 nM.

Turning to YLSTFNMWR, the dissociation constant (Kd) was 64.7 nM.

Take TIPIGMQFDK: the Kd is 17400 nM.

In the case of STYSDICSK, the Kd amounted to 80.2 nM.

Take YIFPGDKTSY: the Kd was determined as 18700 nM.

SQIFNIISY: the Kd came out at 915 nM.

For the sequence DTSNNIAEY, the Kd is no less than 35600 nM.

As for TSMMVILPDK, the Kd was 455 nM.
